US20020035246A1 (VLAAMS INTERUNIVERSITAIR INSTITUUT VOOR BIOTECHNOLOGIE VZW, published 2002)

T1: TH72 prey protein (GAL4TAD fused in-frame to a partial SMAD4 starting at amino acid 252) (mouse, UniProt P97471 252-551, limits assumed)
T1 construct: Only the start (aa 252) is stated; the C-terminal end of the clone is not; also called TH72 (DPC4 or SMAD4); partial DPC-4 (SMAD4)
T1 sequence (looked up): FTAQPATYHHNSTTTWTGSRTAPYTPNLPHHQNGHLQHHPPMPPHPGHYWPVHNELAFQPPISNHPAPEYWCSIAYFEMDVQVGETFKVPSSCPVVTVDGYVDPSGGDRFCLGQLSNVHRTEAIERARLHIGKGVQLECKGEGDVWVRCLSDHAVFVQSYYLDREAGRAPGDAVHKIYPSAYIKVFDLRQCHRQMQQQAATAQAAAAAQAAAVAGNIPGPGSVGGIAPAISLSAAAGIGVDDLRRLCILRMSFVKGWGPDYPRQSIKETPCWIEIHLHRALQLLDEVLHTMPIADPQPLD

T2: SIP1 (TH1) prey protein (GAL4TAD fused to the 626 aa polypeptide encoded by th1 cDNA) (mouse, UniProt Q9R0G7 315-940, limits assumed)
T2 sequence: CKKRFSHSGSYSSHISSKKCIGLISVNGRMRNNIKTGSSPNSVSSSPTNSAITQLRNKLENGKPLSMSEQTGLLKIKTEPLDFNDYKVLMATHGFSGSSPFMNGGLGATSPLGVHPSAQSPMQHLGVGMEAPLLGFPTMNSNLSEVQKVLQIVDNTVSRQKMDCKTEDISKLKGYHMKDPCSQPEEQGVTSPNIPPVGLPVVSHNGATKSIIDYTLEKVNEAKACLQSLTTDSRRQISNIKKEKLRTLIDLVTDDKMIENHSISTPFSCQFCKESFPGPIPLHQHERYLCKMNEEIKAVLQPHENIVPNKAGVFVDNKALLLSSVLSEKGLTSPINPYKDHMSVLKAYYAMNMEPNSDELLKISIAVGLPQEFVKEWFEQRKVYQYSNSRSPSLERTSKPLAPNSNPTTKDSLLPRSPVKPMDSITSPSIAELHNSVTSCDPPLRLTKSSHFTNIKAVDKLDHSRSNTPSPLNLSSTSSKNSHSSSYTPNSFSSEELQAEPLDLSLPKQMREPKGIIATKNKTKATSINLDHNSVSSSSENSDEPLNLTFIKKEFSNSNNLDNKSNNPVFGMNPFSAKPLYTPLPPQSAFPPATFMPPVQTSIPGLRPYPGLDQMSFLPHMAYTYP

B1: Lamin (pLAM; Clontech) (other, UniProt P02545 66-230, looked up)
chain: SEEVVSREVSGIKAAYEAELGDARKTLDSVAKERARLQLELSKVREEFKELKARNTKKEGDLIAAQARLKDLEALLNSKEAALSTALSEKRTLEGELHDLRGQVAKLEAALGEAKKQLQDEMLRRVDAENRLQTMKEELDFQKNIYSEELRETKRRHETRLVEID
notes: Bought control bait plasmid

Assays:
Assay in all cases: yeast two-hybrid
Lamin (pLAM; Clontech) = molecular target: B1
[1] = molecular target: T3, Empty bait vector pGBT9 (GAL-4 DBD alone) (UniProt P04386 1-147)
T3 construct: Negative control bait; also called empty bait (i.e., GAL-4 DBD alone)
T3 sequence (P04386 1-147 limits assumed): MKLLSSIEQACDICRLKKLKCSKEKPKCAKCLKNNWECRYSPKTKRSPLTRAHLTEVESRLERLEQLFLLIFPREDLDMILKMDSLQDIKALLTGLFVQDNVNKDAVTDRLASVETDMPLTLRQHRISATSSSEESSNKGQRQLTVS

[2] = molecular target: T1, TH72 prey protein (GAL4TAD fused …)
[3] = molecular target: T2, SIP1 (TH1) prey protein (GAL4TAD fused …)

| Binder | binding result (Lamin (pLAM; Clontech)) | binding result [1] | binding result [2] | binding result [3] |
| --- | --- | --- | --- | --- |
| SIP7 prey protein (th74; partial open reading frame fused to the GAL4 transactivating domain in pACT2) (other, not shown: small tags and cut ends) TEPVRTDRRTEDQTATKERLLPPSGPLPRTPAPAPVTAPDTARCAVLAARHGRALSPGPRALAPSAQRCCPASGRAAETPASVGAGALRVGPAQPSQARQPTMLLLSPRSALVSVYCPQIFLLLSTAVTTLSSVVALGANIICNKIPGLAPRQRAICQSRPDAIIVIGEGAQMGIDECQHQFRFGRWNCSALGEKTVFGQELRVGSREAAFTYAITAAGVAHAVTAACSQGNLSNCGCDREKQGYYNQAEGWKWGGCSADVRYGIDFSRRFVDAREIKKNAGS | no binding | no binding |  |  |
| B1 |  |  | no binding | no binding |
